Our source for the IFN-γ release ELISA, CD4+ T cells; peptide pulsing level needed for a significant response and Half-live (T½) values is US20100166722A1.

The target of test [1] is cognate NY-ESO peptide-MHC presented on peptide-pulsed APCs. Briefly: cell-based or functional assay.
Test [2] addresses biotinylated cognate NY-ESO peptide-HLA-A*0201 complex. Briefly: SPR (Biacore 3000), soluble TCR over immobilised biotinylated pMHC. In general terms: Surface plasmon resonance follows binding to a sensor surface in real time, without labels.

“full-length wild-type 1G4 NY-ESO TCR expressed on transfected T cells” had an IFN-γ release ELISA, CD4+ T cells; peptide pulsing level needed for a significant response in test [1] above 10 nM. Turning to “soluble disulfide-linked wild-type 1G4 NY-ESO TCR”, in test [2], the Half-live (T½) came out at 2.2 s.
